The record followed here is publication PMC7076015, “An epilepsy-associated mutation in the nuclear import receptor KPNA7 reduces nuclear localization signal binding” (Scientific Reports, 2020).

Common to all, as to settings: both partners purified
Assay [1] has as its target T1, MBP-KPNA7(E344Q) (human, UniProt A9QM74 1-516, E344Q).
T1 construct: Substitution found in epilepsy patients (occurs in nature); also called KPNA7 mutant E344Q; E344Q KPNA7; source: E. coli BL21, purified (amylose resin, eluted with maltose, dialyzed)
Description: pull-down; MBP fusion proteins on amylose resin (1 μg/μl), GST-GFP-NLS constructs in solution (250 nM or indicated concentrations) with Imp-β (250 nM); 2 hrs at 4 °C, 20 mM Tris pH 8, 200 mM NaCl, 1 mM EDTA, 1 mM DTT, 0.05% Triton X-100; western blot.

The next assay deals with T2, MBP-KPNA7(P339A) (human, UniProt A9QM74 1-516, P339A).
T2 construct: Substitution found in epilepsy patients (occurs in nature); also called KPNA7 mutant P339A; P339A KPNA7; source: E. coli BL21, purified (amylose resin, eluted with maltose, dialyzed)
The assay is described as above.

Assay [2] addresses T1, MBP-KPNA7(E344Q). Description: pull-down; bead binding assay with a range of GST-GFP-hnRNP R-bNLS concentrations (10 nM to 2.7 μM) on KPNA7 proteins; binding curve, apparent KD.
The next assay deals with T3, MBP-KPNA7 (wild type) (human, UniProt A9QM74 1-516).
T3 construct: also called WT KPNA7; MBP-KPNA7 WT; source: E. coli BL21, purified (amylose resin, eluted with maltose, dialyzed)
The description is as above.

T1 sequence (A9QM74 whole entry E344Q): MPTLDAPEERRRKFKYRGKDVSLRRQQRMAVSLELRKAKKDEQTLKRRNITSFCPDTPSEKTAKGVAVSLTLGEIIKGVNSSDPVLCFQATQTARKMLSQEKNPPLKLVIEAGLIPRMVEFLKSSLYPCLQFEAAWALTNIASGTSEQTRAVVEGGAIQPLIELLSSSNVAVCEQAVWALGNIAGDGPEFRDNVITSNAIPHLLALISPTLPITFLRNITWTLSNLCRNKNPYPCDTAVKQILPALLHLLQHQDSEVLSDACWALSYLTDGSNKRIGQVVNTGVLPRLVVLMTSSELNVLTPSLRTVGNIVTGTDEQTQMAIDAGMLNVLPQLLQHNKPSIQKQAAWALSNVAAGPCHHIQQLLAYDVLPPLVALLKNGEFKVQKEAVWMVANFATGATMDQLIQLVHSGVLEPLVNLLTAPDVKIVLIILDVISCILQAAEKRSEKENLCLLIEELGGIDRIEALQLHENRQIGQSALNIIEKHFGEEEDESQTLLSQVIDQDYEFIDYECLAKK
T2 sequence (A9QM74 whole entry P339A): as the sequence (A9QM74 whole entry E344Q) above, with P339A, Q344E counted along it
T3 sequence (A9QM74 whole entry): as the sequence (A9QM74 whole entry E344Q) above, with Q344E counted along it

B1: GST-GFP-hnRNP R bipartite NLS (domain or fragment, UniProt O43390 565-589, looked up)
chain: RGGNVGGKRKADGYNQPDSKRRQTN
notes: hnRNP R, bipartite NLS (bNLS, a.a. 565-589), cloned into pGEX-4T1-GFP; The limits are those that the text gives for the NLS; also called hnRNP R bNLS; hnRNP R-bNLS; source: E. coli BL21, purified (glutathione resin)
B1: the “fold less binding than WT KPNA7” value with MBP-KPNA7(E344Q) [1] is around 10 fold. In addition, the binding result with MBP-KPNA7(P339A) is given as “binds”. Moreover, the Kd was around 223 nM with MBP-KPNA7(E344Q) [2] and around 123 nM in the assay with MBP-KPNA7 (wild type).
